The target of the experiment is S. venezuelae WhiD (SvWhiD), N-terminally His6-tagged, full length (S. venezuelae). The experiment can be described thus: native MS; nondenaturing ESI-MS, 250 mM ammonium acetate, pH 7.2; SvWhiD alone (10 μM) or a 2:1 mixture of σ^HrdB4 and SvWhiD.

“S. venezuelae WhiD (SvWhiD), N-terminally His6-tagged, full length (natural protein)”: the stoichiometry N (in general, the number of molecules, sites or subunits per partner or assembly) came to 2.

Source of the values: article PMC7363131.
